B1: DFYHSKRRL-NH2 (peptide)
peptide: DFYHSKRRL-NH2
B2: DFYHSKARLIFS-NH2 (peptide)
peptide: DFYHSKARLIFS-NH2
B3: KRRLIFSK-NH2 (peptide)
peptide: KRRLIFSK-NH2
B4: SMTDFYHSKRRL-NH2 (peptide)
peptide: SMTDFYHSKRRL-NH2
B5: DAYHSKRRLIFS-NH2 (peptide)
peptide: DAYHSKRRLIFS-NH2
B6: HSKRRLIFS-NH2 (peptide)
peptide: HSKRRLIFS-NH2
B7: FYHSKRRLIFSK-NH2 (peptide)
peptide: FYHSKRRLIFSK-NH2
B8: HSKRRLIFSKRK-NH2 (peptide)
peptide: HSKRRLIFSKRK-NH2
B9: AFYHSKRRLIFS-NH2 (peptide)
peptide: AFYHSKRRLIFS-NH2
B10: DFYHSKRRLIAS-NH2 (peptide)
peptide: DFYHSKRRLIAS-NH2
B11: DFYHSKRRLI-NH2 (peptide)
peptide: DFYHSKRRLI-NH2
B12: DFYHSKRRLIFA-NH2 (peptide)
peptide: DFYHSKRRLIFA-NH2
B13: DFYHSKRALIFS-NH2 (peptide)
peptide: DFYHSKRALIFS-NH2
B14: DFYHSARRLIFS-NH2 (peptide)
peptide: DFYHSARRLIFS-NH2
B15: DFYHSKRRAIFS-NH2 (peptide)
peptide: DFYHSKRRAIFS-NH2
B16: DFYHSKRR-NH2 (peptide)
peptide: DFYHSKRR-NH2
B17: DFYASKRRLIFS-NH2 (peptide)
peptide: DFYASKRRLIFS-NH2
B18: YHSKRRLIFSKR-NH2 (peptide)
peptide: YHSKRRLIFSKR-NH2
B19: DFAHSKRRLIFS-NH2 (peptide)
peptide: DFAHSKRRLIFS-NH2
B20: SKRRLIFSKRKP-NH2 (peptide)
peptide: SKRRLIFSKRKP-NH2
B21: YHSKRRLIFS-NH2 (peptide)
peptide: YHSKRRLIFS-NH2
B22: DFYHSK-NH2 (peptide)
peptide: DFYHSK-NH2
B23: FYHSKRRLIFS-NH2 (peptide)
peptide: FYHSKRRLIFS-NH2
B24: MTDFYHSKRRLI-NH2 (peptide)
peptide: MTDFYHSKRRLI-NH2
B25: DFYHSKRRLAFS-NH2 (peptide)
peptide: DFYHSKRRLAFS-NH2
B26: P21 C-terminus (S153A) LFG HAKRRLFG-NH2 (peptide)
peptide: HAKRRLFG-NH2
B27: H-His-Ala-Lys-Arg-Arg-Leu-Ile-Leu-NH2 (peptide)
peptide: H-HAKRRLIL-NH2

Ends that are not written are not given here.

CDK4/Cyclin D1 complex, sequence (P11802 other isoform, or with tags, fused parts or gaps, chain 1 of 2): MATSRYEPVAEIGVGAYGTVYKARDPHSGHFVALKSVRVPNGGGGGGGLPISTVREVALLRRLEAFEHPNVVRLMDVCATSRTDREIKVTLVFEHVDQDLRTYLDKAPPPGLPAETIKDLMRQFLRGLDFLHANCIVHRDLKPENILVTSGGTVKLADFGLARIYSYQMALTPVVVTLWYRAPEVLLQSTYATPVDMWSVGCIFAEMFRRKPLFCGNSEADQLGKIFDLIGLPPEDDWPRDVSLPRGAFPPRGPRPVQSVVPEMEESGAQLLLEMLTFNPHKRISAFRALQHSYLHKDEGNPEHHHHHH
CDK4/Cyclin D1 complex, sequence (P24385 whole entry, chain 2 of 2): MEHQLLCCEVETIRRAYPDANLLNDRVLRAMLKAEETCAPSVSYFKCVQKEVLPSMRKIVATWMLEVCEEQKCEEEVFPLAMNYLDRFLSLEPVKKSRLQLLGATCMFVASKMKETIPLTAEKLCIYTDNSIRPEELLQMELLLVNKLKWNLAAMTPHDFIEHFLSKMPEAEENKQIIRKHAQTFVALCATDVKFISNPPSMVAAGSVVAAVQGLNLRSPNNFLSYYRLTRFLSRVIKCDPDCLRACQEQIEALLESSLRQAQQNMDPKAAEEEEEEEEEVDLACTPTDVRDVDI

One experiment has as its target CDK4/Cyclin D1 complex (UniProt P11802 1-303; P24385 1-295). Put plainly: cell-based or functional assay.
In the case of B1, the “% Inhibition, cyclin D1/CDK4 kinase” value is 10%.

As for B2, the “% Inhibition, cyclin D1/CDK4 kinase” value was 30%.

Turning to B3, the “% Inhibition, cyclin D1/CDK4 kinase” value came out at 20%.

As for B4, the “% Inhibition, cyclin D1/CDK4 kinase” value worked out at 18%.

For the molecule B5, the “% Inhibition, cyclin D1/CDK4 kinase” value came to 76% and the “IC50, cyclin D1/CDK4 kinase, GST-pRb” value amounted to 37 µM.

For the molecule B6, the “% Inhibition, cyclin D1/CDK4 kinase” value came to 65% and the “IC50, cyclin D1/CDK4 kinase, GST-pRb” value stood at 32 µM.

Take B7: the “% Inhibition, cyclin D1/CDK4 kinase” value was 70% and the “IC50, cyclin D1/CDK4 kinase, GST-pRb” value was 41 µM.

For B8, the “% Inhibition, cyclin D1/CDK4 kinase” value was determined as 80% and the “IC50, cyclin D1/CDK4 kinase, GST-pRb” value was 34 µM.

As to B9, the “% Inhibition, cyclin D1/CDK4 kinase” value was determined as 72% and the “IC50, cyclin D1/CDK4 kinase, GST-pRb” value turned out to be 22 µM.

Regarding B10, the “% Inhibition, cyclin D1/CDK4 kinase” value came to 35%.

Consider B11, for which the “% Inhibition, cyclin D1/CDK4 kinase” value is 20%.

As for B12, the “% Inhibition, cyclin D1/CDK4 kinase” value was 60% and the “IC50, cyclin D1/CDK4 kinase, GST-pRb” value was 40 µM.

As to B13, the “% Inhibition, cyclin D1/CDK4 kinase” value was found to be 30%.

As to B14, the “% Inhibition, cyclin D1/CDK4 kinase” value came out at 50% and the “IC50, cyclin D1/CDK4 kinase, GST-pRb” value worked out at 200 µM.

Consider B15, for which the “% Inhibition, cyclin D1/CDK4 kinase” value was 30%.

In the case of B16, the “% Inhibition, cyclin D1/CDK4 kinase” value amounted to 10%.

With B17, the “% Inhibition, cyclin D1/CDK4 kinase” value was determined as 60% and the “IC50, cyclin D1/CDK4 kinase, GST-pRb” value worked out at 73 µM.

As to B18, the “% Inhibition, cyclin D1/CDK4 kinase” value came to 60% and the “IC50, cyclin D1/CDK4 kinase, GST-pRb” value was 45 µM.

On to B19, for which the “% Inhibition, cyclin D1/CDK4 kinase” value came out at 56% and the “IC50, cyclin D1/CDK4 kinase, GST-pRb” value was found to be 121 µM.

With B20, the “% Inhibition, cyclin D1/CDK4 kinase” value came to 40%.

As for B21, the “% Inhibition, cyclin D1/CDK4 kinase” value was 70% and the “IC50, cyclin D1/CDK4 kinase, GST-pRb” value came to 20 µM.

On to B22, for which the “% Inhibition, cyclin D1/CDK4 kinase” value is 10%.

As for B23, the “% Inhibition, cyclin D1/CDK4 kinase” value turned out to be 70% and the “IC50, cyclin D1/CDK4 kinase, GST-pRb” value was found to be 22 µM.

On to B24, for which the “% Inhibition, cyclin D1/CDK4 kinase” value is 11%.

On to B25, for which the “% Inhibition, cyclin D1/CDK4 kinase” value amounted to 61% and the “IC50, cyclin D1/CDK4 kinase, GST-pRb” value came out at 53 µM.

Another experiment has as its target T1, CDK2/Cyclin E complex (UniProt P24941 1-298; P24864 1-410). Put plainly: cell-based or functional assay.
Take B1: the “% Inhibition, cyclin E/CDK2 kinase” value is 50% and the “IC50, cyclin E/CDK2 kinase, GST-pRb” value turned out to be 200 µM.

Regarding B2, the “% Inhibition, cyclin E/CDK2 kinase” value is 25%.

On to B3, for which the “% Inhibition, cyclin E/CDK2 kinase” value is 60% and the “IC50, cyclin E/CDK2 kinase, GST-pRb” value was over 200 µM.

On to B4, for which the “% Inhibition, cyclin E/CDK2 kinase” value worked out at 40%.

Take B5: the “% Inhibition, cyclin E/CDK2 kinase” value is 85% and the “IC50, cyclin E/CDK2 kinase, GST-pRb” value was found to be 5.9 µM.

In the case of B6, the “% Inhibition, cyclin E/CDK2 kinase” value turned out to be 80% and the “IC50, cyclin E/CDK2 kinase, GST-pRb” value was determined as 3.4 µM.

With B7, the “% Inhibition, cyclin E/CDK2 kinase” value was found to be 70% and the “IC50, cyclin E/CDK2 kinase, GST-pRb” value came to 26 µM.

Turning to B8, the “% Inhibition, cyclin E/CDK2 kinase” value was 90% and the “IC50, cyclin E/CDK2 kinase, GST-pRb” value is 8.7 µM.

For B9, the “% Inhibition, cyclin E/CDK2 kinase” value worked out at 70% and the “IC50, cyclin E/CDK2 kinase, GST-pRb” value turned out to be 11 µM.

Take B10: the “% Inhibition, cyclin E/CDK2 kinase” value worked out at 20%.

On to B11, for which the “% Inhibition, cyclin E/CDK2 kinase” value was found to be 35%.

As for B12, the “% Inhibition, cyclin E/CDK2 kinase” value came out at 70% and the “IC50, cyclin E/CDK2 kinase, GST-pRb” value amounted to 5.4 µM.

Turning to B13, the “% Inhibition, cyclin E/CDK2 kinase” value came out at 70% and the “IC50, cyclin E/CDK2 kinase, GST-pRb” value was 30 µM.

With B14, the “% Inhibition, cyclin E/CDK2 kinase” value turned out to be 80% and the “IC50, cyclin E/CDK2 kinase, GST-pRb” value worked out at 12.9 µM.

Take B15: the “% Inhibition, cyclin E/CDK2 kinase” value is 30%.

With B16, the “% Inhibition, cyclin E/CDK2 kinase” value was 40%.

Regarding B17, the “% Inhibition, cyclin E/CDK2 kinase” value was found to be 80% and the “IC50, cyclin E/CDK2 kinase, GST-pRb” value came out at 5.1 µM.

With B18, the “% Inhibition, cyclin E/CDK2 kinase” value stood at 80% and the “IC50, cyclin E/CDK2 kinase, GST-pRb” value was found to be 17.6 µM.

For B19, the “% Inhibition, cyclin E/CDK2 kinase” value is 80% and the “IC50, cyclin E/CDK2 kinase, GST-pRb” value worked out at 5.3 µM.

In the case of B20, the “% Inhibition, cyclin E/CDK2 kinase” value came out at 70% and the “IC50, cyclin E/CDK2 kinase, GST-pRb” value was 46 µM.

With B21, the “% Inhibition, cyclin E/CDK2 kinase” value came out at 80% and the “IC50, cyclin E/CDK2 kinase, GST-pRb” value amounted to 7.3 µM.

With B22, the “% Inhibition, cyclin E/CDK2 kinase” value came to 45% and the “IC50, cyclin E/CDK2 kinase, GST-pRb” value is 200 µM.

Take B23: the “% Inhibition, cyclin E/CDK2 kinase” value was found to be 80% and the “IC50, cyclin E/CDK2 kinase, GST-pRb” value is 6.8 µM.

On to B24, for which the “% Inhibition, cyclin E/CDK2 kinase” value was 35%.

As to B25, the “% Inhibition, cyclin E/CDK2 kinase” value is 80% and the “IC50, cyclin E/CDK2 kinase, GST-pRb” value was determined as 14 µM.

The next experiment deals with T1, CDK2/Cyclin E complex. The experiment in a line: cell-based or functional assay. This is another data set of the same source.
With B26, the “% Inhibition, cyclin E/CDK2 kinase” value was 82% and the “IC50, cyclin E/CDK2 kinase” value stood at 0.9 µM.

The target in a further experiment is CDK2/cyclin A (UniProt P24941 1-298; P20248 1-432). Put plainly: cell-based or functional assay.
As to B27, the “Relative activity, Kinase Inhibition (CDK2/cyclin A kinase assay, pRb substrate, [ATP] = 100 µM)” value is 0.3 relative to H-His-Ala-Lys-Arg-Arg-Leu-Ile-Phe-NH2 (=1).

The values are drawn from patent publication US20040176301A1 (CYCLACEL, published 2004).
